Measurements: US20220298235A1 (AKESO BIOPHARMA, published 2022)
Read-outs that look alike come from different tables or passages of the source.

T1: human IL-23 (IL-23-His-Biotin) (human, UniProt Q9NPF7 20-189; P29460 23-328, biotin label, site not stated)
T1 construct: Akesobio lot 20161209; His-tagged and biotinylated
T1 sequence (looked up) 1: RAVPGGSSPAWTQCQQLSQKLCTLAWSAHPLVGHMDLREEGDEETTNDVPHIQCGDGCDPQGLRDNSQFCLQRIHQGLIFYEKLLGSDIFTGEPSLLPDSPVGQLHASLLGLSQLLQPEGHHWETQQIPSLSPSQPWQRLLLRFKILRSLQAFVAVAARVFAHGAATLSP
T1 sequence (looked up) 2: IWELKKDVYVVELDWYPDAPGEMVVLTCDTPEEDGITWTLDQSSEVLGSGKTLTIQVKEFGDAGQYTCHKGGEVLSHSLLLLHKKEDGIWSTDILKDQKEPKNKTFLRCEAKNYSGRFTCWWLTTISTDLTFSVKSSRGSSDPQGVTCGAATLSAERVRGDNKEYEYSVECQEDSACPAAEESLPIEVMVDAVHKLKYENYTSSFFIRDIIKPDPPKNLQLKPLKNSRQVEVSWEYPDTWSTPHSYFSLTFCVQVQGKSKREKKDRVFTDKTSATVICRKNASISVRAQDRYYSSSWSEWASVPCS

T2: Human IL12 (His Tag) (human, UniProt P29459 23-219; P29460 23-328)
T2 construct: Bought His-tagged heterodimer
T2 sequence (looked up) 1: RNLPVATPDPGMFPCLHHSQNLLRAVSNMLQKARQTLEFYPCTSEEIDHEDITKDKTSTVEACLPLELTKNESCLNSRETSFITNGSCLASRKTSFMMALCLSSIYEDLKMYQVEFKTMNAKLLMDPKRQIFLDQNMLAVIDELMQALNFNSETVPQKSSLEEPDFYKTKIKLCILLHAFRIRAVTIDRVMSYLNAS
T2 sequence (looked up) 2: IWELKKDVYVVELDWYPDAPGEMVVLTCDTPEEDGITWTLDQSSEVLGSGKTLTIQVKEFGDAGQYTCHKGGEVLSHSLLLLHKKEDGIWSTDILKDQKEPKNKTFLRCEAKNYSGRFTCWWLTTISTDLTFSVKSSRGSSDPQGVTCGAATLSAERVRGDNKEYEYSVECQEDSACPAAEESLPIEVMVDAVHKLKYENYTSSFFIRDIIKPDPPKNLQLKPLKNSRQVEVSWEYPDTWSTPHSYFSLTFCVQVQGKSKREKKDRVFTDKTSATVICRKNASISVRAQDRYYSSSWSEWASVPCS

T3: human p40-His (human, UniProt P29460 23-328)
T3 construct: Made by Akeso Biopharma; construct limits and tag not described; also called human IL-12/IL-23 p40 protein domain; human IL-12/IL-23 p40; not shown: His tag
T3 sequence (looked up): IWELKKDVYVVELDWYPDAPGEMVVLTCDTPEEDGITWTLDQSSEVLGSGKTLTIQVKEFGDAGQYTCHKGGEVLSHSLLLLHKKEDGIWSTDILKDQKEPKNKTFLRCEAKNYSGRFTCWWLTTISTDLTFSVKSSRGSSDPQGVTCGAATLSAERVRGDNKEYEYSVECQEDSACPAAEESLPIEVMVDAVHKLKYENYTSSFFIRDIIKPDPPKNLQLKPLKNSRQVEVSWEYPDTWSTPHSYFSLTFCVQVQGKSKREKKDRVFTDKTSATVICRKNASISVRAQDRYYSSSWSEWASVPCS


What was measured:
[1] = molecular target: T1, human IL-23 (IL-23-His-Biotin); test: FACS competition, IL-23-His-Biotin 2 µg/mL on 293T-IL-12Rβ1&IL-23R cells
Procedure: (§1) 200 μL of 1% PBSA was added into each sample, and the mixture was centrifuged at 700×g for 5 min to discard the supernatant. According to experiment design, correspondingly diluted antibody (highest final concentration of 30 μg/mL, 3-fold dilution, 8 concentrations in total) and human IL-23 (IL-23-His-Biotin, Akesobio, 20161209) (final concentration of 2 μg/mL) were mixed at a ratio of 1:1, and a blank control was set. The mixture of antibody and human IL23 was incubated on ice for 30 min and then added to the cell precipitate at 100 μL/sample. The resulting mixture was well mixed and incubated on ice for 60 min. 200 μL of 1% PBSA was added, and the mixture was centrifuged at 700×g for 5 min to discard the supernatant, and then washed twice. FITC Steptavidin (Biolegend, Cat. No.: 405202) was diluted at a ratio of 1:500 and added to each tube at 100 μL. The mixture was well mixed and incubated on ice for 40 min in the absence of light. 200 μL of 1% PBSA was added, and the mixture was centrifuged at 700×g for 5 min to discard the supernatant, and then washed twice. 1% PBSA was added at 200 μL/tube, and the cells were resuspended and transferred to a flow cytometry tube for testing.

[2] = molecular target: T1, human IL-23 (IL-23-His-Biotin); test: FACS competition, IL-23-His-Biotin 2 µg/mL on 293T-IL-12Rβ1&IL-23R cells; antibody 1.11 µg/mL
Procedure: as §1

Human IL12 (His Tag) [3] = molecular target: T2, Human IL12 (His Tag); test: FACS competition, IL-12-His 20 nM on 293T-IL-12Rβ1&IL-23R cells
Procedure: (§2) 200 μL of 1% PBSA was added into each sample, and the mixture was centrifuged at 700×g for 5 min to discard the supernatant. According to experiment design, correspondingly diluted antibody (highest final concentration of 30 μg/mL, 3-fold dilution, 8 concentrations in total) and human IL-12 (Sino Biological, Cat. No.: CT-050-H08H-20) (final concentration of 20 nM) were mixed at a ratio of 1:1, and a blank control was set. The mixture of antibody and human IL12 was incubated on ice for 30 min and then added to the cell precipitate at 100 μL/sample. The resulting mixture was well mixed and incubated on ice for 60 min 200 μL of 1% PBSA was added, and the mixture was centrifuged at 700×g for 5 min to discard the supernatant, and then washed twice. Alexa Fluor® 488 anti-His tag antibody (Biolegend, Cat. No.: 652509) was diluted at a ratio of 1:400 and added to each tube at 100 μL. The mixture was well mixed and incubated on ice for 40 min in the absence of light. 200 μL of 1% PBSA was added, and the mixture was centrifuged at 700×g for 5 min to discard the supernatant, and then washed twice. 1% PBSA was added at 200 μL/tube, and the cells were resuspended and transferred to a flow cytometry tube for testing.

Human IL12 (His Tag) [4] = molecular target: T2, Human IL12 (His Tag); test: FACS competition, IL-12-His 20 nM on 293T-IL-12Rβ1&IL-23R cells; antibody 0.04 µg/mL
Procedure: as §2

human p40-His [5] = molecular target: T3, human p40-His; test: indirect ELISA, p40-His coat 0.125 µg/mL
Procedure: (§3) A microplate was coated with human p40-His (Akeso Biopharma, Inc.; gene of p40: GeneBank NM002187). After incubation at 4° C. for no less than 12 h, the plate was washed with PBST, patted dry and blocked with a solution of 1% BSA in PBS. After blocking was completed, the plate was washed with PBST and patted dry. The antibody diluted with PBST solution in gradient was added into the wells of the plate, and the antibody dilution gradient is detailed in Table 1. The plate containing the test antibody was incubated at 37° C. for 30 min and then washed with PBST and patted dry. […] TMB (Neogen, 308177) was added for color developing for 5 min in the absence of light, and then stop solution was added to terminate the chromogenic reaction. Then the plate was put into a plate reader immediately, and the OD value of each well in the plate was read at 450 nm. The data were analyzed by SoftMax Pro 6.2.1.
(§4) The binding EC₅₀ of antibody was calculated by curve fitting using antibody concentration as the abscissa and absorbance value as the ordinate, and the results are shown in Table 2 below.

human p40-His [6] = molecular target: T3, human p40-His; test: indirect ELISA, p40-His coat 0.125 µg/mL; remark: listed apart in the source
Procedure: as §3
as §4, with “The detection results of the binding of antibodies H5L11, H5L12, H5L14 and Ab123FR1 to the antigen human p40-His are shown in FIG. 3. The” for “The”, “3” for “2”

Binder	EC50 [1]	MFI [2]	EC50 (Human IL12 (His Tag) [3])	MFI (Human IL12 (His Tag) [4])	EC50 (human p40-His [5])	EC50 (human p40-His [6])
ustekinumab (antibody, V domains shown) VH: EVQLVQSGAEVKKPGESLKISCKGSGYSFTTYWLGWVRQMPGKGLDWIGIMSPVDSDIRYSPSFQGQVTMSVDKSITTAYLQWNSLKASDTAMYYCARRRPGQGYFDFWGQGTLVTVSS VL: DIQMTQSPSSLSASVGDRVTITCRASQGISSWLAWYQQKPEKAPKSLIYAASSLQSGVPSRFSGSGSGTDFTLTISSLQPEDFATYYCQQYNIYPYTFGQGTKLEIK	1.16 µg/mL	121 MFI	0.377 µg/mL	150 MFI		
H5L10 (antibody, human IgG1, kappa, V domains shown, human IgG1 / kappa constant regions; also called humanized antibody H5L10) VH: EVQLVQSGAEVKKPGESLKISCQSSGYSFTTYWIGWVRQMPGQGLEWIGIMSPVDSDIRYNPMFRGQVTMSVDKSSSTAYLQWSSLKASDTAMYYCARRRPGQGYFDFWGQGTMVTVSS VL: EIVLTQSPATLSASPGERATISCRASQSVGSWLAWYQQKPGQAPRSLIYAASNLQSGIPARFSGSGSGTDFTLTISSLEPEDFAVYYCQQYNIYPYTFGQGTRLEIKR	0.7 µg/mL	81.6 MFI	0.331 µg/mL	154 MFI	57 pM	
H5L9 (antibody, human IgG1, kappa, V domains shown, human IgG1 (P01857) / kappa (P01834) constant regions; also called humanized antibody H5L9) VH: EVQLVQSGAEVKKPGESLKISCQSSGYSFTTYWIGWVRQMPGQGLEWIGIMSPVDSDIRYNPMFRGQVTMSVDKSSSTAYLQWSSLKASDTAMYYCARRRPGQGYFDFWGQGTMVTVSS VL: DIQMTQSPSSLSASVGDRVTITCKASQNVGSWLAWYQQKPGKAPKSLIYSASSRQSGVPSRFSGSGSGTDFTLTISSLQPEDFATYYCQQYDIYPFTFGQGTKLEIKR	4.25 µg/mL	184 MFI		158 MFI		
H5L11 (antibody, human IgG1, kappa, V domains shown, human IgG1 / kappa constant regions; also called humanized antibody H5L11) VH: EVQLVQSGAEVKKPGESLKISCQSSGYSFTTYWIGWVRQMPGQGLEWIGIMSPVDSDIRYNPMFRGQVTMSVDKSSSTAYLQWSSLKASDTAMYYCARRRPGQGYFDFWGQGTMVTVSS VL: EIVLTQSPATLSASPGERATISCRASQSVSSWLAWYQQKPGQAPRSLIYSASNLQSGIPARFSGSGSGTDFTLTISSLEPEDFAVYYCQQYNIYPYTFGQGTRLEIKR	0.864 µg/mL	97.6 MFI	0.414 µg/mL	151 MFI		82 pM
H5L12 (antibody, human IgG1, kappa, V domains shown, human IgG1 / kappa constant regions; also called humanized antibody H5L12) VH: EVQLVQSGAEVKKPGESLKISCQSSGYSFTTYWIGWVRQMPGQGLEWIGIMSPVDSDIRYNPMFRGQVTMSVDKSSSTAYLQWSSLKASDTAMYYCARRRPGQGYFDFWGQGTMVTVSS VL: EIVLTQSPATLSASPGERATISCRASQSVSSWLAWYQQKPGQAPRSLIYAASNRQSGIPARFSGSGSGTDFTLTISSLEPEDFAVYYCQQYNIYPYTFGQGTRLEIKR	0.775 µg/mL	88.5 MFI	0.317 µg/mL	149 MFI		82 pM
H5L14 (antibody, human IgG1, kappa, V domains shown, human IgG1 / kappa constant regions; also called humanized antibody H5L14) VH: EVQLVQSGAEVKKPGESLKISCQSSGYSFTTYWIGWVRQMPGQGLEWIGIMSPVDSDIRYNPMFRGQVTMSVDKSSSTAYLQWSSLKASDTAMYYCARRRPGQGYFDFWGQGTMVTVSS VL: EIVLTQSPATLSASPGERATISCRASQSVSSWLAWYQQKPGQAPRSLIYAASNLQSGIPARFSGSGSGTDFTLTISSLEPEDFAVYYCQQYNIYPFTFGQGTRLEIKR	0.881 µg/mL	95.6 MFI	0.532 µg/mL	155 MFI		107 pM
